The values below come from paper PMC9521027 (ACS Omega, 2022).

One data set deals with T1, URAT1 K393H mutant (Homo sapiens, UniProt Q96S37, K393H).
T1 sequence (Q96S37 1-553 K393H): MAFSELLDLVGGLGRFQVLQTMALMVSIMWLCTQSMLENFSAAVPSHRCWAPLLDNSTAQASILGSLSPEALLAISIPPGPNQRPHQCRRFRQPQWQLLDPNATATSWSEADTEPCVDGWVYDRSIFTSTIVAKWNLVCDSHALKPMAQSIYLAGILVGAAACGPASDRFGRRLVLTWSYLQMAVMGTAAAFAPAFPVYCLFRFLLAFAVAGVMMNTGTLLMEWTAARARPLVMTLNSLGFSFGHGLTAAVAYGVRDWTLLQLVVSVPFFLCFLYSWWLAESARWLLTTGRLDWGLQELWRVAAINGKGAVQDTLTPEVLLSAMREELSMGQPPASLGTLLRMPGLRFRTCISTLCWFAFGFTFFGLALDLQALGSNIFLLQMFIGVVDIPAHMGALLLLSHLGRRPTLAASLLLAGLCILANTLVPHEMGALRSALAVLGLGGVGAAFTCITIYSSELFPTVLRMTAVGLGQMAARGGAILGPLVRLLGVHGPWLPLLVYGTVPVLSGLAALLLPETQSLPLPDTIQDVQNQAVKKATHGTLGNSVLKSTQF
Nature of the data set: 14C-uric acid binding assay with membrane protein. The note with it: 1 μM BM, 1 μM verinurad, 10 μM lesinurad, 20 μM probenecid, 30 min, 25 μM 14C-uric acid.

The target in a further data set is T2, URAT1 K393R mutant (Homo sapiens, UniProt Q96S37, K393R).
T2 sequence (Q96S37 1-553 K393R): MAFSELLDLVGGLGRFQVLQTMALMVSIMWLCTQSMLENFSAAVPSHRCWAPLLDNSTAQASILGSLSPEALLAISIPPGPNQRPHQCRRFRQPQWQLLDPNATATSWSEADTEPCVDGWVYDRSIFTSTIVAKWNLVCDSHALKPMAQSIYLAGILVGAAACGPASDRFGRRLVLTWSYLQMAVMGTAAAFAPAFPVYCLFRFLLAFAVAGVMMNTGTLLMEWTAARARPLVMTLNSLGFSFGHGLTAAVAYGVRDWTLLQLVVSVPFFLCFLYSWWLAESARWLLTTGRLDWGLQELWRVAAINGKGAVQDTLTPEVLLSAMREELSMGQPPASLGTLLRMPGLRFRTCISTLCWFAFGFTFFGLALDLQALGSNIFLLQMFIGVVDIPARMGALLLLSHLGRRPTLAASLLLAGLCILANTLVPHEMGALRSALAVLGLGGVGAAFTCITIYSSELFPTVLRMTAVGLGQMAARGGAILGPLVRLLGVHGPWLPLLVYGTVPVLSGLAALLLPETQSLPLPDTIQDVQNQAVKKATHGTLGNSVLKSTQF
The experiment in a line: 14C-uric acid binding assay with membrane protein. The note with it: 1 μM BM, 1 μM verinurad, 10 μM lesinurad, 20 μM probenecid, 30 min, 25 μM 14C-uric acid.

Substrate in data set [1]: O=c1[nH]c(=O)c2[nH]c(=O)[nH]c2[nH]1
Nature of the data set: Saturation kinetic experiment of 14C-uric acid uptake. In kind it is cell-based, human. Particulars: 10–200 μM 14C-uric acid, 20 min, HEK293, n = 3.

The Km is the substrate concentration at which the rate is half of its maximum. The term Vmax denotes the top rate of the reaction or transport when substrate is in excess.

Values joined by “and” are separate entries in the source; they are usually repeats but may differ in a detail not shown here. Equal values may be shown once.

For `O=C(O)CSc1nnc(Br)n1-c1ccc(C2CC2)c2ccccc12` [lesinurad], the “Effect of inhibitor on 14C-uric acid binding compared with WT group” value (“Effect of inhibitor … compared with WT group” below) at URAT1 K393H mutant and on URAT1 K393R mutant was “similar” throughout.

On to `CCCN(CCC)S(=O)(=O)c1ccc(C(=O)O)cc1` [probenecid], for which the “Effect of inhibitor … compared with WT group” value at URAT1 K393H mutant and at URAT1 K393R mutant was “similar” throughout.

Turning to `CCc1oc2ccccc2c1C(=O)c1cc(Br)c(O)c(Br)c1` [BM, benzbromarone], the “Effect of inhibitor … compared with WT group” value on URAT1 K393H mutant and on URAT1 K393R mutant was “poorly interfered” in each case.

B1: hURAT1 K393R mutant (Homo sapiens; K393R) (protein)
chain: MAFSELLDLVGGLGRFQVLQTMALMVSIMWLCTQSMLENFSAAVPSHRCWAPLLDNSTAQASILGSLSPEALLAISIPPGPNQRPHQCRRFRQPQWQLLDPNATATSWSEADTEPCVDGWVYDRSIFTSTIVAKWNLVCDSHALKPMAQSIYLAGILVGAAACGPASDRFGRRLVLTWSYLQMAVMGTAAAFAPAFPVYCLFRFLLAFAVAGVMMNTGTLLMEWTAARARPLVMTLNSLGFSFGHGLTAAVAYGVRDWTLLQLVVSVPFFLCFLYSWWLAESARWLLTTGRLDWGLQELWRVAAINGKGAVQDTLTPEVLLSAMREELSMGQPPASLGTLLRMPGLRFRTCISTLCWFAFGFTFFGLALDLQALGSNIFLLQMFIGVVDIPARMGALLLLSHLGRRPTLAASLLLAGLCILANTLVPHEMGALRSALAVLGLGGVGAAFTCITIYSSELFPTVLRMTAVGLGQMAARGGAILGPLVRLLGVHGPWLPLLVYGTVPVLSGLAALLLPETQSLPLPDTIQDVQNQAVKKATHGTLGNSVLKSTQF
Turning to B1, in data set [1] (other: K393R), the Km was 128.11 μM and 101.23 ± 26.11 (ns) μM; the Vmax is recorded as 557.21 ± 89.21(ns).

B2: hURAT1 K393A mutant (Homo sapiens; K393A) (protein)
chain: MAFSELLDLVGGLGRFQVLQTMALMVSIMWLCTQSMLENFSAAVPSHRCWAPLLDNSTAQASILGSLSPEALLAISIPPGPNQRPHQCRRFRQPQWQLLDPNATATSWSEADTEPCVDGWVYDRSIFTSTIVAKWNLVCDSHALKPMAQSIYLAGILVGAAACGPASDRFGRRLVLTWSYLQMAVMGTAAAFAPAFPVYCLFRFLLAFAVAGVMMNTGTLLMEWTAARARPLVMTLNSLGFSFGHGLTAAVAYGVRDWTLLQLVVSVPFFLCFLYSWWLAESARWLLTTGRLDWGLQELWRVAAINGKGAVQDTLTPEVLLSAMREELSMGQPPASLGTLLRMPGLRFRTCISTLCWFAFGFTFFGLALDLQALGSNIFLLQMFIGVVDIPAAMGALLLLSHLGRRPTLAASLLLAGLCILANTLVPHEMGALRSALAVLGLGGVGAAFTCITIYSSELFPTVLRMTAVGLGQMAARGGAILGPLVRLLGVHGPWLPLLVYGTVPVLSGLAALLLPETQSLPLPDTIQDVQNQAVKKATHGTLGNSVLKSTQF
On to B2, for which, in data set [1] (other: K393A), the Km was 172.12 ± 27.12 µM and the Vmax worked out at 0.000464 µmol/min/mg.

B3: hURAT1 K393H mutant (Homo sapiens; K393H) (protein)
chain: MAFSELLDLVGGLGRFQVLQTMALMVSIMWLCTQSMLENFSAAVPSHRCWAPLLDNSTAQASILGSLSPEALLAISIPPGPNQRPHQCRRFRQPQWQLLDPNATATSWSEADTEPCVDGWVYDRSIFTSTIVAKWNLVCDSHALKPMAQSIYLAGILVGAAACGPASDRFGRRLVLTWSYLQMAVMGTAAAFAPAFPVYCLFRFLLAFAVAGVMMNTGTLLMEWTAARARPLVMTLNSLGFSFGHGLTAAVAYGVRDWTLLQLVVSVPFFLCFLYSWWLAESARWLLTTGRLDWGLQELWRVAAINGKGAVQDTLTPEVLLSAMREELSMGQPPASLGTLLRMPGLRFRTCISTLCWFAFGFTFFGLALDLQALGSNIFLLQMFIGVVDIPAHMGALLLLSHLGRRPTLAASLLLAGLCILANTLVPHEMGALRSALAVLGLGGVGAAFTCITIYSSELFPTVLRMTAVGLGQMAARGGAILGPLVRLLGVHGPWLPLLVYGTVPVLSGLAALLLPETQSLPLPDTIQDVQNQAVKKATHGTLGNSVLKSTQF
Regarding B3, in data set [1] (other: K393H), the Km is 101.23 μM and 128.11 ± 19.12 (ns) μM; the Vmax came out at 0.000447 µmol/min/mg.

B4: hURAT1 K393E mutant (Homo sapiens; K393E) (protein)
chain: MAFSELLDLVGGLGRFQVLQTMALMVSIMWLCTQSMLENFSAAVPSHRCWAPLLDNSTAQASILGSLSPEALLAISIPPGPNQRPHQCRRFRQPQWQLLDPNATATSWSEADTEPCVDGWVYDRSIFTSTIVAKWNLVCDSHALKPMAQSIYLAGILVGAAACGPASDRFGRRLVLTWSYLQMAVMGTAAAFAPAFPVYCLFRFLLAFAVAGVMMNTGTLLMEWTAARARPLVMTLNSLGFSFGHGLTAAVAYGVRDWTLLQLVVSVPFFLCFLYSWWLAESARWLLTTGRLDWGLQELWRVAAINGKGAVQDTLTPEVLLSAMREELSMGQPPASLGTLLRMPGLRFRTCISTLCWFAFGFTFFGLALDLQALGSNIFLLQMFIGVVDIPAEMGALLLLSHLGRRPTLAASLLLAGLCILANTLVPHEMGALRSALAVLGLGGVGAAFTCITIYSSELFPTVLRMTAVGLGQMAARGGAILGPLVRLLGVHGPWLPLLVYGTVPVLSGLAALLLPETQSLPLPDTIQDVQNQAVKKATHGTLGNSVLKSTQF
On to B4, for which, in data set [1] (other: K393E), the Km is 201.23 ± 23.65 µM and the Vmax amounted to 0.000424 µmol/min/mg.

B5: hURAT1 K393D mutant (Homo sapiens; K393D) (protein)
chain: MAFSELLDLVGGLGRFQVLQTMALMVSIMWLCTQSMLENFSAAVPSHRCWAPLLDNSTAQASILGSLSPEALLAISIPPGPNQRPHQCRRFRQPQWQLLDPNATATSWSEADTEPCVDGWVYDRSIFTSTIVAKWNLVCDSHALKPMAQSIYLAGILVGAAACGPASDRFGRRLVLTWSYLQMAVMGTAAAFAPAFPVYCLFRFLLAFAVAGVMMNTGTLLMEWTAARARPLVMTLNSLGFSFGHGLTAAVAYGVRDWTLLQLVVSVPFFLCFLYSWWLAESARWLLTTGRLDWGLQELWRVAAINGKGAVQDTLTPEVLLSAMREELSMGQPPASLGTLLRMPGLRFRTCISTLCWFAFGFTFFGLALDLQALGSNIFLLQMFIGVVDIPADMGALLLLSHLGRRPTLAASLLLAGLCILANTLVPHEMGALRSALAVLGLGGVGAAFTCITIYSSELFPTVLRMTAVGLGQMAARGGAILGPLVRLLGVHGPWLPLLVYGTVPVLSGLAALLLPETQSLPLPDTIQDVQNQAVKKATHGTLGNSVLKSTQF
Turning to B5, in data set [1] (other: K393D), the Km was determined as 165.36 ± 23.41 µM and the Vmax is 0.000497 µmol/min/mg.

B6: hURAT1 WT (Homo sapiens) (protein)
chain: MAFSELLDLVGGLGRFQVLQTMALMVSIMWLCTQSMLENFSAAVPSHRCWAPLLDNSTAQASILGSLSPEALLAISIPPGPNQRPHQCRRFRQPQWQLLDPNATATSWSEADTEPCVDGWVYDRSIFTSTIVAKWNLVCDSHALKPMAQSIYLAGILVGAAACGPASDRFGRRLVLTWSYLQMAVMGTAAAFAPAFPVYCLFRFLLAFAVAGVMMNTGTLLMEWTAARARPLVMTLNSLGFSFGHGLTAAVAYGVRDWTLLQLVVSVPFFLCFLYSWWLAESARWLLTTGRLDWGLQELWRVAAINGKGAVQDTLTPEVLLSAMREELSMGQPPASLGTLLRMPGLRFRTCISTLCWFAFGFTFFGLALDLQALGSNIFLLQMFIGVVDIPAKMGALLLLSHLGRRPTLAASLLLAGLCILANTLVPHEMGALRSALAVLGLGGVGAAFTCITIYSSELFPTVLRMTAVGLGQMAARGGAILGPLVRLLGVHGPWLPLLVYGTVPVLSGLAALLLPETQSLPLPDTIQDVQNQAVKKATHGTLGNSVLKSTQF
Take B6: in data set [1] (other: WT), the Km is 106.45 ± 16.45 µM and the Vmax came out at 0.000654 µmol/min/mg.
